Measurements taken from patent US20030059862A1 (Human Genome Sciences, published 2003).

T1: BCMA (Homo sapiens (Human), UniProt Q02223 1-48, limits assumed)
T1 chain: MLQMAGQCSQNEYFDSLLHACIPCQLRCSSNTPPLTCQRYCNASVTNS

T2: TACI (Homo sapiens (Human), UniProt O14836 1-154, limits assumed)
T2 sequence: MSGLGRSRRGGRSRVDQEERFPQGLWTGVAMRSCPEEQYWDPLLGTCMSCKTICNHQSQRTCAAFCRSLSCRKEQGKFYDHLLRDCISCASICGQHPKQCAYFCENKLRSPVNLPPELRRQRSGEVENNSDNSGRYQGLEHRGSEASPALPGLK

T3: LIGHT (Homo sapiens (Human), UniProt O43557 83-240, limits assumed)
T3 chain: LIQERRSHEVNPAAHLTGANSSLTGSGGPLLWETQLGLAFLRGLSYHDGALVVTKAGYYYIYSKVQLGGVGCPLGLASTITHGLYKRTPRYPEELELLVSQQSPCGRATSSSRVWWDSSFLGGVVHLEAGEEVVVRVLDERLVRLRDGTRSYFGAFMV

T4: biotinylated APRIL (Homo sapiens (Human), UniProt O75888 105-250, biotinylated using NHS-biotin at a molar ratio of 20:1 biotin:APRIL)
T4 construct: also called bio-APRIL
T4 sequence: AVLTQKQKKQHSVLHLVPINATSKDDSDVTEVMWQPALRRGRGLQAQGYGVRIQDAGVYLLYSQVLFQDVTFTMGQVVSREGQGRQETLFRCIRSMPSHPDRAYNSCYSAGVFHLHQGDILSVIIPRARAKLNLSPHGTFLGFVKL


What was measured:
BCMA = target: T1, BCMA; test: Specificity phage ELISA (scFv on phage, anti-M13-HRP, A450)
Procedure: (§1) Flexible 96-well plates (Falcon) were coated overnight at 4° C. with each antigen (1 μg/ml). All antigens were coated in PBS. After coating, the solutions were removed from the wells, and the plates were blocked for 1 hour at room temperature in MPBS. The plates were washed 3 times with PBS and then 50 μl of pre-blocked phage was added to each well. The plates were incubated at room temperature for 1 hour and then washed with 3 changes of PBST followed by 3 changes of PBS.
(§2) To each well, 50 μl of an anti-M13-HRP conjugate (Pharmacia) at a 1 in 5000 dilution in MPBS was added and the plates incubated at room temperature for 1 hour. Each plate was washed three times with PBST followed by three times with PBS.
(§3) Fifty μl of TMB substrate was then added to each well, and incubated at room temperature for 30 minutes or until color development. The reaction was stopped by the addition of 25 μl of 0.5 M H₂SO₄. The signal generated was measured by reading the absorbance at 450 nm (A₄₅₀) using a microtitre plate reader (Bio-Rad 3550).

TACI = target: T2, TACI; test: as above
Procedure: as §1, §2, §3

BLyS = target: T5, BLyS (Homo sapiens (Human), UniProt Q9Y275 134-285); test: as above
T5 construct: also called Neutrokine-alpha
Procedure: as §1, §2, §3

LIGHT = target: T3, LIGHT; test: as above
Procedure: as §1, §2, §3

TNF-α = target: T6, TNF-α (Homo sapiens (Human), UniProt P01375 77-233); test: as above
T6 construct: also called TNF-alpha
T6 sequence (P01375 77-233 limits assumed): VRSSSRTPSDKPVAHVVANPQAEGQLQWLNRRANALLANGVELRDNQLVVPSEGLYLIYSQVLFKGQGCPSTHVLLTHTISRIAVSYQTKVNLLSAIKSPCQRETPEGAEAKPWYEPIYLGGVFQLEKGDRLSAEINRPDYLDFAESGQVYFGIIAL
Procedure: as §1, §2, §3

BSA = target: T7, BSA (UniProt P02769 25-607); test: as above
T7 construct: Unrelated control antigen coated at 1 µg/ml in the phage ELISAs
T7 sequence (P02769 25-607 limits assumed): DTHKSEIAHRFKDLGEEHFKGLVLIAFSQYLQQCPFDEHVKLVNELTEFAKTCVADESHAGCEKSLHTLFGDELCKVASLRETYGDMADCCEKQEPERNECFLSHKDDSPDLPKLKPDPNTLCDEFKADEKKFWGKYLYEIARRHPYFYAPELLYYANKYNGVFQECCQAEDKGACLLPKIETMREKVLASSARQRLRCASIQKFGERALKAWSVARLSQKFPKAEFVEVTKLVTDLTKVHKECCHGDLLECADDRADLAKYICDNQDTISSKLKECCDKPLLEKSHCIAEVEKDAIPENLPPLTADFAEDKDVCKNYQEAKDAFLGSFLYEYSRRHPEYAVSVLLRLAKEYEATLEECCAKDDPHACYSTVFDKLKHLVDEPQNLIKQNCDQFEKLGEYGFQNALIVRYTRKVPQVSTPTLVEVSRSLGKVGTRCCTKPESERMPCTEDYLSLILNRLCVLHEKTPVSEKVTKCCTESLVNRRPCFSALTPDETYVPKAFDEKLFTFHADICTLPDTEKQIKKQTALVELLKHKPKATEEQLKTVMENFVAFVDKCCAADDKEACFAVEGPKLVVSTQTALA
Procedure: as §1, §2, §3

biotinylated APRIL [1] = target: T4, biotinylated APRIL; test: scFv inhibition of bio-APRIL (5 ng/ml) binding to coated BCMA fusion protein, streptavidin-DELFIA
Procedure: (§4) APRIL binds to BCMA with higher affinity than its binds to TACI so, inhibition of biotinylated APRIL (bio-APRIL) binding to BCMA can be used to screen selection outputs as periplasmic extracts for neutralizers and then assess potency of the positives as purified scFvs. To perform this assay, each well of a black 96 well flat-bottomed plate (Costar) was coated with 1.25 ng BCMA fusion protein overnight at 4° C. The wells were blocked with 3% milk in PBS for an hour at room temperature. ScFv were then added in the presence of 5 ng/ml biotinylated APRIL for 90 minutes at room temperature. Binding of biotinylated APRIL was detected via streptavidin Delfia (Wallac) added at a 1:1000 dilution in Delfia assay buffer (Wallac). After an hour at room temperature this was read on a Wallac 1420 workstation at 620 nm.

biotinylated APRIL [2] = target: T4, biotinylated APRIL; test: scFv inhibition of bio-APRIL (50 ng/ml) binding to coated TACI fusion protein, streptavidin-DELFIA
Procedure: as §4
(§5) An assay similar to that described above can also be used to test if anti-APRIL antibodies of the invention are able to inhibit binding of bio-APRIL to TACI. In this case, the plate was coated with 2.5 ng TACI fusion protein per well and scFv were added in the presence of 50 ng/ml biotinylated APRIL instead of 5 ng/ml. Otherwise, the method was identical to that for the BCMA:bio-APRIL assay.

biotinylated APRIL [3] = target: T4, biotinylated APRIL; test: scFv inhibition of bio-APRIL (5 ng/ml) binding to coated BCMA fusion protein, streptavidin-DELFIA; partial inhibition
Procedure: as §4

biotinylated APRIL [4] = target: T4, biotinylated APRIL; test: scFv inhibition of bio-APRIL (50 ng/ml) binding to coated TACI fusion protein, streptavidin-DELFIA; partial inhibition
Procedure: as §4, §5

biotinylated APRIL [5] = target: T4, biotinylated APRIL; test: receptor binding inhibition assay: scFv titrated with bio-APRIL (5 ng/ml); blocked binding of bio-APRIL to plate-coated BCMA fusion protein; streptavidin Delfia, fluorescence counts
Procedure: as §4

Binder	IC50 (biotinylated APRIL [1]) [nM]	IC50 (biotinylated APRIL [2]) [nM]	IC50 (biotinylated APRIL [4]) [nM]	further results
A004G02 (scFv) scFv: QVQLVQSGAEVKKPGSSVKVSCKASGGTFSSYGIRWVRQAPGQGLEWMGGIIPIFGTANYAQKFQGRVTITADEYTSTAYMELSSLRSEDTAVYYCARSNPQYDAFDIWGQGTTVTVSSGGGGSGGGGSGGGGSSYVLTQPPSVSGTPGQRVTVSCSGGRSNIGSNTVKWYQQLPGTAPKLLIYGNDQRPSGVPDRFSGSKSGNTASLTVSGLQVEDEADYYCQSYDSSLRGSVFGGGTKLTVLG	19	800	–	binding result (BCMA): no binding (tested: antigen coated at 1 µg/ml); binding result (TACI): no binding (tested: antigen coated at 1 µg/ml); binding result (BLyS): no binding (tested: antigen coated at 1 µg/ml); binding result (LIGHT): no binding (tested: antigen coated at 1 µg/ml); binding result (TNF-α): no binding (tested: antigen coated at 1 µg/ml); binding result (BSA): no binding (tested: antigen coated at 1 µg/ml)
A010D09 (scFv) scFv: QVQLVQSGAEVKKLGSSVKVSCKASGGTFSSYAISWVRQAPGQGLEWMGGIIPIFGTANYAQKFQGRVTITADESTSTAYMELSSLRSEDTAVYYCARDLSRLGMDVWGQGTTVTVSSGGGGSGGGGSGGGGSDIQMTQSPSTLSASIGDRVTITCRASEGIYHWLAWYQQKPGKAPKLLIYKASSLASGAPSRFSGSGSGTDFTLTISSLQPDDFATYYCQQYSNYPLTFGGGTKLEIKR	–	–	12	IC50 (biotinylated APRIL [3]): 2.3 nM; IC50 (biotinylated APRIL [5]): 3 nM
A030D09 (scFv) scFv: QVQLQQSGAEVKKPGSSVKVSCKTSGGAFSHYAIHWVRLAPGQGLEWMGDIIPVYGSTTYAQKFQDRVTISADESTSTAYMELSSLRSEDTAVYYCARSWYYDILTGYWDYYYMDVWGKGTLVTVSSGGGGSGGGGSGGGGSSELTQDPAVSVALGQTVRITCQGDSLRSYYASWYQQKPGQAPVLVIYGKNNRPSGIPDRFSGSSSGNTASLTITGAQAEDEADYYCNSRDSSGNHVVFGGGTKLTVLG	55	–	150	–
A027B01 (scFv) scFv: QVQLLQSAAEVKKPGSSVKVSCKTSGGTFRNHAISWVRQAPGQGLEWMGGIIPIFGTANYAQKFQGRVTITADESTSTAYMELSSLRSEDTAVYYCARGISAGMDVWGRGTLVTVSSGGGGSGGGGSGGGGSDIQMTQSPSFLSASIGDRVTITCRASEGIYHWLAWYQQKPGKAPKLLIYKASSLASGAPSRFSGSGSGTDFTLTISSLQPDDFATYYCQQYSNYPLTFGGGTKLEIKR	–	–	94	IC50 (biotinylated APRIL [3]): 3.1 nM
A020F03 (scFv) scFv: EVQLVQSGAEVKKPGASVKVSCKTSGYTFTDNYMHWVRQAPGQGLEWMGWISPNSSTTLYAQKFRGRVTLTRDTSVSTAYMELSGLDSDDTALYFCARGGRLAGSTVFTPAFEYWGRGTMVTVSSGGGGSGGGGSGGGGSAQAVLTQPSSVSEAPRQRVTISCSGSSSNIGNNAVKWYQQLPGKAPKLLIYYDDLLPSGVSDRFSGSKSGTSASLAISGLQSEDEADYYCAAWDDSLNGYVFGTGTKVTVLG	12	3.5	–	–
A053H04 (scFv) scFv: EVQLVQSGAEVKKPGSSVKVSCKASGGTFSNYAISWVRQAPGQGLEWMGGIIPLFDTPNYAQKFQGRVTITADESTSTAYMELSSLRSEDTAVYYCARGNTGPRPFDPWGKGTTVTVSSGGGGSGGGGSGGGGSAQAVLTQPSSVSGAPGQRVTVSCTGSSSNIGAGYEVNWYQQLPGTAPKLLIYGDTNRPSGVPDRFSGSKSGTSASLAITGLQAEDEANYYCQSYDSGPGGPVVFGGGTKLTVLG	25	–	139	–

Continued by falling IC50 (biotinylated APRIL [1]), values first:

IC50 (biotinylated APRIL [1]) [nM]	IC50 (biotinylated APRIL [2]) [nM]	IC50 (biotinylated APRIL [4]) [nM]	Binder	further results
10	–	13	A034H05 (scFv) scFv: EVQLVQSGAEVKKPGSSVKVSCKVSGGSFPNYAINWVRQAPGQGLEWMGSLVPVFLTPNYAERFQDRVTITADESTSTAYMELRSLRSDDTAVFYCARSGGDGYRDYGMDLWGRGTLVTVSSGGGGSGGGGSGGGGSAQSVLTQPPSASGTPGQRVTISCSGSSSNIGRNTVNWFQQLPGTAPKLLIYSSNQRPSGVPDRFAGSKSGTSASLAISGLQSEDEADYYCAAWDDSLNGLVFGGGTKLTVLG	–
7.7	10	–	A013B07 (scFv) scFv: EVQLVQSGAEVKKPGASVKVSCKTSGYTFTDNYMHWVRQAPGQGLEWMGWISPNSSTTLYAQKFRGRVTLTRDTSVSTAYMELSGLDSDDTALYFCARGGRLAGSTVFTPAFEYWGQGTMVTVSSGGGGSGGGGSGGGGSAQSVLTQPPSVSEAPRQRVTISCSGSSSNIGANAVNWYQQLPGKAPKLLIYFDDLLPSGVSDRFSGSKSGTSASLAISGLQSEDEADYYCAAWDDSLNGVVFGGGTKLTVLG	–
6	–	36	A034G03 (scFv) scFv: QVQLQQSGAEVKKPGSSVKVSCKASGGTFSNYAISWVRQAPGQGLEWMGGIIPLFDTPNYAQKFQGRVTITADESTSTAYMELSSLRSEDTAVYYCARGNTGPRPFDPWGQGTLVTVSSGGGGSGGGGSGGGGSAQAVLTQPSSVSGAPGQRVTISCSATSPNIGAGDEIHWYQVSPGKAPKLLIYGDIKRPSGVSDRFSGSKSGTTASLAITGLRPEDEADYYCQSYDRTLSGSVVFGGGTKVTVLG	–
2.7	–	5.6	A027A11 (scFv) scFv: QVQLQQSGAEVKKPGSSVKVSCKASGGTFSTYAITWVRQAPGQGLEWMGDIIPVFGIPNYAQMFQDRVTITADESTSTAYLELNSLGAEDTAVYYCARGSQAFEIWGKGTTVTVSSGGGGSGGGGSGGGGSQSVLTQPASVSGSPGQSITISCTGTSSDVGGYNYVSWYQQHPGKAPKLMIYEGSKRPSGVSNRFSGSKSGNTASLTISGLQAEDEADYYCSSYTTRSTRVFGGGTKLTVLG	–
